In patent CN107417789A:

Target: 移除了糖基化位点(Asn-38)的H7 HA(A/鸡/意大利/99假病毒) (influenza A virus A/chicken/Italy/99 (H7))
Test: cell-based or functional assay

Substance	H7假病毒中和 IC50 [µg/mL]
CR6261 (antibody)	> 50
F10 (antibody)	> 50
